Source: paper PMC9482650, “Quantitative fragmentomics allow affinity mapping of interactomes” (Nature Communications, 2022)

T1: DLG3_3, Q92796
T1 sequence (Q92796 374-475, limits assumed, looked up): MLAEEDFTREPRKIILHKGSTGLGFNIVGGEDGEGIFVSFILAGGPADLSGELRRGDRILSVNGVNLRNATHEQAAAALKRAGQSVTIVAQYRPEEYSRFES

T2: MPP7, Q5T2T1
T2 sequence (Q5T2T1 134-230, limits assumed, looked up): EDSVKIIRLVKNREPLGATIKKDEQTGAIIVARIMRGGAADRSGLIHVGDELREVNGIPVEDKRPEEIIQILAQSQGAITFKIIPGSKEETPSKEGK

T3: DVL3, Q92997
T3 sequence (Q92997 244-331, limits assumed, looked up): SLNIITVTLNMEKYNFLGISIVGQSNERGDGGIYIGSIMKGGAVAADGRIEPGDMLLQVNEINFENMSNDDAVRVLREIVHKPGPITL

T4: LRRC7, Q96NW7
T4 sequence (Q96NW7 1440-1537, limits assumed, looked up): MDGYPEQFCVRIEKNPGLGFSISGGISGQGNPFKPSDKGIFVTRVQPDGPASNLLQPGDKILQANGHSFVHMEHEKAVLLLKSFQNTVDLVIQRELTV

T5: MPDZ_10, O75970
T5 sequence (O75970 1624-1722, limits assumed, looked up): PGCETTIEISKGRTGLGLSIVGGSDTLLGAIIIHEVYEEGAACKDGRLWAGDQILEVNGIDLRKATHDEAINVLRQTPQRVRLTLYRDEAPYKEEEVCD

T6: APBA3_1, O96018
T6 sequence (O96018 389-490, limits assumed, looked up): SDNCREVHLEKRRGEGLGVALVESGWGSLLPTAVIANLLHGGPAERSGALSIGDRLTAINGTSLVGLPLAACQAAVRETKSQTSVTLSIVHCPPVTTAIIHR

T7: DFNB31_1, Q9P202
T7 sequence (Q9P202 135-233, limits assumed, looked up): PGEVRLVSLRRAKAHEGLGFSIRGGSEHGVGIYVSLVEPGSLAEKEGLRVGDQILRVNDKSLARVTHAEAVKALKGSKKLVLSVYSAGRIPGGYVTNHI

T8: SNTB1, Q13884
T8 sequence (Q13884 107-205, limits assumed, looked up): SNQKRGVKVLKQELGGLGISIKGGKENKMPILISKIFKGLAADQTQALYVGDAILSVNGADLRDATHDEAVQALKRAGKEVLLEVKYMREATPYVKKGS

T9: PDZRN3_1, Q9UPQ7
T9 sequence (Q9UPQ7 244-349, limits assumed, looked up): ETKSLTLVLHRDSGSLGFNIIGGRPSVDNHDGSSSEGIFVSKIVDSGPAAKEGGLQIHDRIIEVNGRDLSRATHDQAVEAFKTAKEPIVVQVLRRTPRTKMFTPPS

T10: MPDZ_5, O75970
T10 sequence (O75970 695-796, limits assumed, looked up): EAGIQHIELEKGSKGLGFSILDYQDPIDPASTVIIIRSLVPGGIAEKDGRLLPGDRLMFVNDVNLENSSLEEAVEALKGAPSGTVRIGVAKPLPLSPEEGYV

T11: RHPN1, Q8TCX5
T11 sequence (Q8TCX5 508-602, limits assumed, looked up): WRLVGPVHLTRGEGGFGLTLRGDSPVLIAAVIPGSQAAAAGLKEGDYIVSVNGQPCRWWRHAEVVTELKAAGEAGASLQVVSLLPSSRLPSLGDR


Tests used:
Assay in all cases: holdup assay
Parameters in all cases: key: below the threshold = too weak to quantify, mostly under pKd 3.1 to 4
Conditions in all cases: plain residues with an end cap or a label only (N-terminal biotin on a linker: ado-ado)
[1] = molecular target: GORASP2, Q9H8Y8
[2] = molecular target: SCRIB_1, Q14160
Sequence of SCRIB_1, Q14160 (Q14160 718-814): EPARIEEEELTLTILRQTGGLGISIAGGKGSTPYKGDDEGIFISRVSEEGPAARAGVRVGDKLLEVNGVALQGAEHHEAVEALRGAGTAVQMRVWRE

[3] = molecular target: T1, DLG3_3, Q92796
[4] = molecular target: NHERF4_4, Q86UT5
Sequence of NHERF4_4, Q86UT5 (Q86UT5 464-550): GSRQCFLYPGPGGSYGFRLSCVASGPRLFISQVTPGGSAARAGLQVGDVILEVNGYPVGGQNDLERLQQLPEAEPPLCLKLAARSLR

[5] = molecular target: T2, MPP7, Q5T2T1
[6] = molecular target: T3, DVL3, Q92997
[7] = molecular target: DLG2_2, Q15700
Sequence of DLG2_2, Q15700 (Q15700 189-283): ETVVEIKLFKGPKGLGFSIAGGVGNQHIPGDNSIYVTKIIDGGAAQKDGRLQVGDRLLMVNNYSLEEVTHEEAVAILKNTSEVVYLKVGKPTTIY

[8] = molecular target: PDLIM1, O00151
Sequence of PDLIM1, O00151 (O00151 1-87): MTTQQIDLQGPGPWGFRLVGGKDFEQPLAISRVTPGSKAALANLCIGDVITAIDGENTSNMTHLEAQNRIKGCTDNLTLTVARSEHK

[9] = molecular target: T4, LRRC7, Q96NW7
[10] = molecular target: NHERF4_1, Q86UT5-2
Sequence of NHERF4_1, Q86UT5-2 (Q86UT5 other isoform, or with tags, fused parts or gaps): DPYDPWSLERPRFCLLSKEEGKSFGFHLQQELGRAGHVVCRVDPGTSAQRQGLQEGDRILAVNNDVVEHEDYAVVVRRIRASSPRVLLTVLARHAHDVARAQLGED

[11] = molecular target: GRIP2_6, Q9C0E4
Sequence of GRIP2_6, Q9C0E4 (Q9C0E4 648-740): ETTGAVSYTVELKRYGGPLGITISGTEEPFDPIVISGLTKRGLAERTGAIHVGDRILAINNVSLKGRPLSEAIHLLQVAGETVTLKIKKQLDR

[12] = molecular target: Inadl_3, Q8NI35
Sequence of Inadl_3, Q8NI35 (Q8NI35 359-469): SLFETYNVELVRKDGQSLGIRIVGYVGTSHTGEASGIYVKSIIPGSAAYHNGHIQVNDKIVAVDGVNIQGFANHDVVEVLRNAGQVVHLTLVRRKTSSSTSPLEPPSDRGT

[13] = molecular target: T5, MPDZ_10, O75970
[14] = molecular target: FRMPD2_1, Q68DX3
Sequence of FRMPD2_1, Q68DX3 (Q68DX3 770-861): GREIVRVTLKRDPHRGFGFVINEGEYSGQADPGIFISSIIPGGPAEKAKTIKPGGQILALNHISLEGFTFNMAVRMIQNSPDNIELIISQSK

[15] = molecular target: Inadl_4, Q8NI35
Sequence of Inadl_4, Q8NI35 (Q8NI35 547-651): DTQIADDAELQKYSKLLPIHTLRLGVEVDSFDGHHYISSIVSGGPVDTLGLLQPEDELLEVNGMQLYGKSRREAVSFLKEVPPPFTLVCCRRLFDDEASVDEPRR

[16] = molecular target: T6, APBA3_1, O96018
[17] = molecular target: Inadl_1, Q8NI35
Sequence of Inadl_1, Q8NI35 (Q8NI35 113-229): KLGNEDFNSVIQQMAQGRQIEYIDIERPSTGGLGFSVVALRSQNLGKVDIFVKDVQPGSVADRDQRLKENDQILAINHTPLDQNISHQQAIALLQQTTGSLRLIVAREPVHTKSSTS

[18] = molecular target: GORASP1, Q9BQQ3
Sequence of GORASP1, Q9BQQ3 (Q9BQQ3 1-208): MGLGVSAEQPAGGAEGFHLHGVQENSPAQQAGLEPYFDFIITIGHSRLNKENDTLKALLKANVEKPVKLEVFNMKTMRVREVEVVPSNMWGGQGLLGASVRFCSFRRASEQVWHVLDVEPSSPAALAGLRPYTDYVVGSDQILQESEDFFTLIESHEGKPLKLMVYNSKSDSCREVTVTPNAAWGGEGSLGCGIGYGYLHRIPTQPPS

[19] = molecular target: SCRIB_3, Q14160
Sequence of SCRIB_3, Q14160 (Q14160 999-1103): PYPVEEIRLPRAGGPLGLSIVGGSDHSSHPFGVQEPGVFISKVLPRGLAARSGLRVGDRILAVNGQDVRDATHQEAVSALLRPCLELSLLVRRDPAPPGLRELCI

[20] = molecular target: IL16_1, Q14005
Sequence of IL16_1, Q14005 (Q14005 210-306): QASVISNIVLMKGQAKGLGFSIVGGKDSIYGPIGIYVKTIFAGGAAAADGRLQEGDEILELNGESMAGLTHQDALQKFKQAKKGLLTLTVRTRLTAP

[21] = molecular target: T7, DFNB31_1, Q9P202
[22] = molecular target: T8, SNTB1, Q13884
[23] = molecular target: T9, PDZRN3_1, Q9UPQ7
[24] = molecular target: T10, MPDZ_5, O75970
[25] = molecular target: TJP1_2, Q07157
Sequence of TJP1_2, Q07157 (Q07157 181-274): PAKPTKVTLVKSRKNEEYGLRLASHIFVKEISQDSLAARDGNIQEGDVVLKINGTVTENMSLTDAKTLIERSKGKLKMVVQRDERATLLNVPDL

[26] = molecular target: T11, RHPN1, Q8TCX5

Row | Binder | pKd [1] | pKd [2] | pKd [3] | pKd [4] | pKd [5] | pKd [6] | pKd [7] | pKd [8] | pKd [9] | pKd [10] | pKd [11] | pKd [12] | pKd [13] | pKd [14] | pKd [15] | pKd [16] | pKd [17] | pKd [18] | pKd [19] | pKd [20] | other results
1 | QSPANIYYKV [EFNB1, P52799] | 5.16 | below the threshold | below the threshold | below the threshold | 3.61 | below the threshold | below the threshold | below the threshold | below the threshold | below the threshold | 4.4 | below the threshold | below the threshold | below the threshold | below the threshold | below the threshold | 3.82 | 4.85 | below the threshold | below the threshold | pKd [21]: below the threshold; pKd [22]: below the threshold; pKd [23]: below the threshold; pKd [24]: below the threshold; pKd [25]: below the threshold; pKd [26]: below the threshold
2 | TASPAKETSF [SLC2A7, Q6PXP3] | below the threshold | 4.56 | below the threshold | below the threshold | below the threshold | below the threshold | 4.06 | below the threshold | below the threshold | 4 | below the threshold | below the threshold | below the threshold | below the threshold | below the threshold | below the threshold | below the threshold | below the threshold | 5.14 | below the threshold | pKd [21]: 3.94; pKd [22]: 3.53; pKd [23]: below the threshold; pKd [24]: below the threshold; pKd [25]: below the threshold; pKd [26]: 3.97
3 | SAAKVLTSMC [GHRHR, Q02643] | below the threshold | 4.58 | below the threshold | below the threshold | below the threshold | below the threshold | below the threshold | below the threshold | below the threshold | 4.35 | below the threshold | below the threshold | 3.49 | below the threshold | below the threshold | below the threshold | below the threshold | below the threshold | 3.61 | below the threshold | pKd [21]: below the threshold; pKd [22]: 3.53; pKd [23]: below the threshold; pKd [24]: below the threshold; pKd [25]: below the threshold; pKd [26]: 4.06
4 | QSARLWETSI [ADAM22, Q9P0K1] | 3.55 | 5.23 | 4.29 | 3.91 | 4.22 | below the threshold | 3.85 | below the threshold | below the threshold | below the threshold | 3.84 | 4.92 | below the threshold | below the threshold | below the threshold | below the threshold | 3.84 | below the threshold | 5.32 | 3.68 | pKd [21]: 5.41; pKd [22]: 4.69; pKd [23]: 4.87; pKd [24]: below the threshold; pKd [25]: below the threshold; pKd [26]: 4.57
5 | MLSKQSESAI [FLVCR1, Q9Y5Y0] | below the threshold | 3.91 | below the threshold | 3.92 | below the threshold | below the threshold | below the threshold | below the threshold | below the threshold | 3.6 | below the threshold | below the threshold | below the threshold | below the threshold | below the threshold | below the threshold | below the threshold | below the threshold | 4.61 | below the threshold | pKd [21]: 4.86; pKd [22]: 3.68; pKd [23]: 3.78; pKd [24]: below the threshold; pKd [25]: below the threshold; pKd [26]: 4.01
